B1: T-cell surface antigen CD2 (Homo sapiens), P06729 (parent)
chain: MSFPCKFVASFLLIFNVSSKGAVSKEITNALETWGALGQDINLDIPSFQMSDDIDDIKWEKTSDKKKIAQFRKEKETFKEKDTYKLFKNGTLKIKHLKTDDQDIYKVSIYDTKGKNVLEKIFDLKIQERVSKPKISWTCINTTLTCEVMNGTDPELNLYQDGKHLKLSQRVITHKWTTSLSAKFKCTAGNKVSKESSVEPVSCPEKGLDIYLIIGICGGGSLLMVFVALLVFYITKRKKQRSRRNDEELETRAHRVATEERGRKPHQIPASTPQNPATSQHPPPPPGHRSQAPSHRPPPPGHRVQHQPQKRPPAPSGTQVHQQKGPPLPRPRVQPKPPHGAAENSLSPSSN
partner: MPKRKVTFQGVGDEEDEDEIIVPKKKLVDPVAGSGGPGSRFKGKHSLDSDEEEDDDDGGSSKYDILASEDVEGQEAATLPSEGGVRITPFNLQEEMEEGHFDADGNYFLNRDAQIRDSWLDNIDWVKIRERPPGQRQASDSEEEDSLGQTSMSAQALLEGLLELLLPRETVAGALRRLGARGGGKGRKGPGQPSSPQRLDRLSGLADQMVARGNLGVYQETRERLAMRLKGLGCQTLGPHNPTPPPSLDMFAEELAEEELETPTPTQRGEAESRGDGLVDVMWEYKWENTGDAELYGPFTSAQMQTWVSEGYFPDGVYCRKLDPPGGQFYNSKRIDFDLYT

Variants of: B1
Details: with cd2b2_human CD2BP2, O95400

| Variant | effect of a mutation on the interaction |
| --- | --- |
| V304W | decreasing interaction strength |
| V304C | decreasing interaction strength |
| V304D | decreasing interaction strength |
| V304E | decreasing interaction strength |
| R303H | decreasing interaction strength |
| R303N | decreasing interaction strength |
| R303D | disrupting interaction strength |
| R303Y | disrupting interaction strength |
| R303F | decreasing interaction strength |
| R303Q | decreasing interaction strength |
| R303I | decreasing interaction strength |
| R303G | disrupting interaction strength |
| R303P | decreasing interaction strength |
| R303T | disrupting interaction strength |
| R303V | disrupting interaction strength |
| R303L | decreasing interaction strength |
| R303M | decreasing interaction strength |
| R303E | disrupting interaction strength |
| R303A | disrupting interaction strength |
| R303W | disrupting interaction strength |
| R303C | disrupting interaction strength |
| R303S | disrupting interaction strength |
| H302E | decreasing interaction strength |

Source: IntAct's records for PubMed 15105431
